We go through two molecules from article PMC3549492.

Test [1] deals with N-terminal HaloTag human KIF1A (amino acids 1-361) fusion protein (human) (UniProt Q12756). The experiment in a line: pull-down; HaloTag-Kif1a (1-361) on HaloLink magnetic beads under saturated conditions; MTs with or without full-length human Dcx; 5 μM of each protein; 4 mM ATP, ADP or AMP-PNP; supernatant and pellet, silver staining, densitometry, bound fraction P/(S+P) normalized to ATP without Dcx.

The target of test [2] is MTs of the traditional MT pull-down assay from lysates. The experiment in a line: pull-down; traditional MT pull-down assay with AMP-PNP; lysates from HEK cells expressing Kif1 (1-365) with or without Dcx (amino acids 1-270); excess MTs.

As to porcine MTs (microtubules) (complex), in test [1], the fold increase of Kif1a-MT binding with Dcx in the presence of ADP, against a Dcx-negative control came out at 2 fold.

B1: motor domain of Kif1 (amino acids 1-365) (domain or fragment)
chain: MAGASVKVAVRVRPFNSREMSRDSKCIIQMSGSTTTIVNPKQPKETPKSFSFDYSYWSHTSPEDINYASQKQVYRDIGEEMLQHAFEGYNVCIFAYGQTGAGKSYTMMGKQEKDQQGIIPQLCEDLFSRINDTTNDNMSYSVEVSYMEIYCERVRDLLNPKNKGNLRVREHPLLGPYVEDLSKLAVTSYNDIQDLMDSGNKARTVAATNMNETSSRSHAVFNIIFTQKRHDAETNITTEKVSKISLVDLAGSERADSTGAKGTRLKEGANINKSLTTLGKVISALAEMDSGPNKNKKKKKTDFIPYRDSVLTWLLRENLGGNSRTAMVAALSPADINYDETLSTLRYADRAKQIRCNAVINEDPN
Turning to B1, the increase in binding of Kif1a to MTs with Dcx (amino acids 1-270) over control in test [2] was 15 to 20%.
